{"source": "the RNAGym collection of RNA variant scans (doi:10.1073/pnas.2313332121)", "parents": {"B1": {"name": "TPR t1 (parent)", "chain": "GACCAAUCUGCCCUCAGAGCUCGAGAACAUCUUCGGAUGCAGAGGAGGCAGGCUUCGGUGGCGCGAUAGCGCCAACGUCCUCAACCUCCAAUGCAUCCCACCACAUGAUGAUGCCUGAAGAGCCUUGGUUUUUUG"}}, "data": [{"variants_of": "B1", "experiment": "polymerase ribozyme fitness, log enrichment relative to wild type (log ratio); higher = more active; in vitro selection for triplet polymerase activity", "in_short": "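For each subunit of a heterodimeric triplet polymerase ribozyme, a mutant library was built by PCR and transcribed, then taken through a single in vitro selection round in triplicate. Selection involved annealing to a biotinylated primer, the partner subunit and triplets, incubation frozen at −7 °C, gel excision of extended constructs, capture on streptavidin beads and RT-PCR. Genotypes were retained after Illumina sequencing of inputs and outputs only with ≥10 input reads and ≥1 read in each output. Fitness is defined as the logarithm of a genotype's enrichment relative to wild-type enrichment, using inverse-variance-weighted averages across replicates, with the logarithm taken to base 2.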", "values": [{"variant": "GACCAAUCUGCCCUCAGAGCUCGAGAACAUCUUCGGAUGCAGAGGAGACAGGCUUUGGUGGCGCGAUAGCGCCAACGUCCUCAACCUCCAAUCGAUCCCACCACAUGAUGAUGCCUGAAGAGCCUUGGUUUUUUG", "polymerase ribozyme fitness (log ratio)": -5.23}, {"variant": "GACCAAUCUGCCCUCAGAGCUCGAGAACAUCUUCGGAUGCUGAGGAGGCAGGCUUCGGUGGCGCGGUAGCGCCAACGUCCUCAACCUCCAAAGCAUCCCACCACAUGAUGAUGCCUGAAGAGCCUUGGUUUUUUG", "polymerase ribozyme fitness (log ratio)": -2.28}, {"variant": "GACCAAUCUGCCCUCAGAGCUCGAGAACAUCUUCGGAUGCUCAGGAGGCAGGAUUCGGUGGCGCGAUAGCGCCAACGUCCUCAAUCUCCAAUGCAUCCCACCACAUGAUGAUGCCUGAAGAGCCUUGGUUUUUUG", "polymerase ribozyme fitness (log ratio)": -4.01}, {"variant": "GACCAAUCUGCCCUCAGAGCUCGAGAACAUCUUCAGAUGCAGAGGAGGCAGGCUUCGGUGGCGCGAUAGCGCUAACGGCCUCAACCUCCGAUGCAUCCCACCACAUGAUGAUGCGUGAAGCGCCUUGGUUUUUUG", "polymerase ribozyme fitness (log ratio)": -5.51}, {"variant": "GACCAAUCUGCCCUCAUAGCUCGAGAACAUCUUCGGAUGCAGAGGAGGCAGGCUUCGGUGGCGCGAUAGAGCCAACGUCCUCAACCUACGAUGCAUCCCACCACAUGAUGAUGCCUGAAGAGCCUUGGUUUUUUG", "polymerase ribozyme fitness (log ratio)": -4.06}, {"variant": "GACCAAUCUGCCCUCAGAGCUCGAGAACAUCUUCGGAUGCAGAGGAGGUAAGCUUCGGUGGCGCGAUAGCGCCAACGUCCUCAACCUACAAUGCAUCCCACCACAUGAUGAUGCCUGAAGAGCCUUGGUUUUUUG", "polymerase ribozyme fitness (log ratio)": -3.64}, {"variant": "GACCAAUCGGCCCUCAGAGCUCGAGAACAUCUUCGGAUGCAGAGGAGGCAGGUUUCGGUGGCGCGAUAGCGCCAACGUCCUCAACCUCCAAUGCAUCCCACCACAUCAUGAUGCCUGAAGAGCCUUGGUUUUUUG", "polymerase ribozyme fitness (log ratio)": -5.76}, {"variant": "GACCAAUCUGCCCUCAGAGCUCGAGAACAUCUUCGGAUGCAGAGGAGGCAGGCUUCGGUGGCGCGAUAGCGACAACGUCCUCAACCUCCAAUGCAUCCCACCACAUGAUGACGCCUGAAGAGCCUUCGUUUUUUG", "polymerase ribozyme fitness (log ratio)": 0.93}, {"variant": "GACCAAUCUGCCCUCAGAGCUCGAGAACAUCUUCGGAUGCAGAGGAGGCAGGCUUCGGUGGCGCGAUAGUGCCAACGUCUUCAACCUCCAAUGCAACCCACCACACGAUGAUGCCUGAAGAGCCUUGGUUUUUUG", "polymerase ribozyme fitness (log ratio)": -4.08}, {"variant": "GACCAAUCUGCCCUCAGAGCUCUAGAACAUCUUCGGAUGCAGAGGAGGCAGGCUUCGGUGGCGCGAUAGCGCCAACGUCCUCAACCUCCUAUGCAUCCCACCACAUGAUGAUGCCUGAAGAGCCUUGGUUUUUUG", "polymerase ribozyme fitness (log ratio)": -6.86}, {"variant": "GACCAAUCUGCCGUCAGAGCUCGAGAACAUCUUCGGAUGCAGAGGAGGCAGGCUUCGGUGGCGCGUUAGCGCCAACGUUCUCAACCUCCAAUGCAUCCCACAACAUGAUGAUGCCUGAAGAGCCUUGGUUUUUUG", "polymerase ribozyme fitness (log ratio)": -4.83}, {"variant": "GACGAAUCUGCACUAAGAGCUCGAGAACAUCUUCGGAUGCAGAGGAGGCAGGCUUCGGUGGCGCGAUAGCGCUAACGUCCUCAACCUCCAAUGAAUCCUACCACAUGAUCAUGCCUGAAGAGCCUUGGUUUUUUG", "polymerase ribozyme fitness (log ratio)": -7.24}, {"variant": "GACCAAUCUGCACUCAGAGCUCGAGAACAUCUUCGGAUGCAGAGGAGGCAGGCUUCGGUGCCGCGAUAGCGCCAACGCCUUAAACCUCCAAUGCAUCCCACCACAUGAUGAUGCCUGAAGCGCCUUGGUUUUUUG", "polymerase ribozyme fitness (log ratio)": -7.45}, {"variant": "GACCAAUCUGCCCUCAGAGCUCGAGAACAUCUUCGGAUGUAGAAGAGGCAGGCUUCGGUGGCGCGAUAGCGCCAACGUCCUCAACCUCCAAUGCAUCCCACCACAUGAUGAUGCCUGAAGUGCCUUGGUUUUUUG", "polymerase ribozyme fitness (log ratio)": 0.301}, {"variant": "GACCAAUCUGCCCUCAGAGCUCGAGAACAUCUUCGGAUUCAGAGGAGGCAGGCUUCGGUGGCGCGAUAGCGCCAACGUCCUCAACCUCCAAUGCAUCCCACCACCUGAUGAUGCCUGAAGAGCCUUGGUUUUUUG", "polymerase ribozyme fitness (log ratio)": -3.64}, {"variant": "GACCAAUCUGCCCUCAGAGCUCGAGAACAUUUUCGGAUGCAGAGGAGGCAGGCUUCGGUGGCGCGAUAGCGCCAACGUCCUUAACCUCCAAUGCAUCCCACCACAUGAUGAUGCCUGAAGAGCCUUGGUUUUUUG", "polymerase ribozyme fitness (log ratio)": -5.12}, {"variant": "GACCAAUCUGCCCUCAGAGCUCGAGAACAUCUUCGGAUGCAGAGGAGGCAGGCUUCGGUGGCGCGAUAGAGCCAACGCCCUCAACCUCCAAUGCAUCCCACUACAUGAUGAUGCCUGAAGAGCCUUGGUUUUUUG", "polymerase ribozyme fitness (log ratio)": -4.3}, {"variant": "GACCAAUCUGCCCUCAGAGCUCGAGAACACCUUCGGAUGCAGAGGAGGCAGGCUUCGGUGCCGCGAUAGCGUCAACGUCCUCAACCUCCAAUGCUUCCCACCACAUGAUGAUGCCUGAAGAGCCUUGGUUUUUUG", "polymerase ribozyme fitness (log ratio)": -4}, {"variant": "GACCAAUCUGCCCUCAGAGCUCGAGAACAUCUUCGGAUGCAGAGGAGGCAGGCUUCGGUGGCGCGAUAGCGCCAACGUCCUCAACCUCCAAUGCAUCCCACCACAUGAUGAUGCCUCAAGGGCCUUGGUCUUUUG", "polymerase ribozyme fitness (log ratio)": 0.325}, {"variant": "GACCAAUCUGCGCUCAGAGCUCGAGAACAUCUUCGGAUGCAGAGGAGGCAGGCUUCGGUGGCGCGAUAGCGCCAACGUCCUCAACCUUCAAUGCAUCCCACCACUUGAUGAUGCCUGAAGAGACUUGGUUUUUUG", "polymerase ribozyme fitness (log ratio)": -0.335}, {"variant": "GACCAAUCUGCCCUCAGAGCUCGAGAACAUCUUCGGAUGCAGAGGAGGUAGGCUUCGGUGGCGCGAUAGCGCCAACGUCCACAACCUCAAAUGCAUCCCACCACAUGAUGAUGCCUGAAGAGCCUUGGUUUUUUG", "polymerase ribozyme fitness (log ratio)": -4.05}]}]}
